# Measured values as given in ChEMBL document CHEMBL5233245, “Monocarboxylate transporter 1 and 4 inhibitors as potential therapeutics for treating solid tumours: A review with structure-activity relationship insights” (Eur J Med Chem, 2020).
# Assays:
# [1] = substrate: CC(=O)C(=O)O; experiment: (§1) Substrate activity at rat MCT2 expressed in Xenopus laevis oocytes assessed as Km by Michaelis-Menten analysis; assay type: cell-based; conditions: Oocyte
# [2] = substrate: C[C@H](O)C(=O)O; experiment: as §1; assay type: cell-based; conditions: Oocyte
# [3] = substrate: CC(C)(OCc1nn(Cc2ccccc2)c2ccccc12)C(=O)O; conditions: Homo sapiens; Oocyte; time 10.0 min
# [4] = substrate: C[C@H](O)C(=O)O; experiment: Substrate activity at chicken MCT3 expressed in yeast assessed as Km incubated for 3 mins by Michaelis-Menten analysis; conditions: Gallus gallus
# [5] = substrate: CCC(=O)C(=O)O; experiment: (§2) Substrate activity at rat MCT1 expressed in Xenopus laevis oocytes assessed as Km; assay type: cell-based; conditions: Oocyte
# [6] = substrate: C[C@@H](O)C(=O)O; experiment: as §2; assay type: cell-based; conditions: Oocyte
# [7] = substrate: C[C@H](O)C(=O)O; experiment: as §2; assay type: cell-based; conditions: Oocyte
# [8] = substrate: CCC(=O)C(=O)O; experiment: (§3) Substrate activity at rat MCT4 expressed in Xenopus laevis oocytes assessed as Km; assay type: cell-based; conditions: Oocyte
# [9] = substrate: C[C@H](O)C(=O)O; experiment: as §3; assay type: cell-based; conditions: Oocyte
protein,measurement,setting,value
"Monocarboxylate transporter 2 (Rattus norvegicus), Q63344 (protein) MPSESSVKATAAPPPFPLPPDGGWGWVVVCASFISIGFSYAFPKAVTVFFNDIKDIFKTTSSQIAWISSIMLAVMYAGGPISSVLVNNYGSRPVVIVGGLLCCTGMILASFSSSVIELYLTVGFIGGLGLAFNLQPALTIIGKYFYRKRPLANGFAMAGSPVFLSTLAPFNQFLFNSYGWKGSFLILGAIFLHSCVAGCLMRPVGPSPRAAKSKSKVGSRQDSSTKRLSKVSTAEKINRFLDFGLFTHRGFLIYLSGNVVLFLGMFAPIIFLAPYAKDKGVDDYNSAFLLSVMAFTDMFARPSVGLIANTSLIRPRIQYLFSVAIMFTGICHLLCPLAHSYTALVVYVIFFGIGFGSISSLLFECLMDQVGASRFSSAVGLVTIVECCPVLFGPPLAGKLLDITGQYKYLYIASGIVVLSSGIYLLICNAINYRLLEKERKREKARRKKSASQASKEMEALSRSKQDDVTVKVSNTHNPPSDRDKESSI",Km,[1],0.08 mM
same,Km,[2],0.75 mM
"Monocarboxylate transporter 4 (Homo sapiens), O15427 (protein) MGGAVVDEGPTGVKAPDGGWGWAVLFGCFVITGFSYAFPKAVSVFFKELIQEFGIGYSDTAWISSILLAMLYGTGPLCSVCVNRFGCRPVMLVGGLFASLGMVAASFCRSIIQVYLTTGVITGLGLALNFQPSLIMLNRYFSKRRPMANGLAAAGSPVFLCALSPLGQLLQDRYGWRGGFLILGGLLLNCCVCAALMRPLVVTAQPGSGPPRPSRRLLDLSVFRDRGFVLYAVAASVMVLGLFVPPVFVVSYAKDLGVPDTKAAFLLTILGFIDIFARPAAGFVAGLGKVRPYSVYLFSFSMFFNGLADLAGSTAGDYGGLVVFCIFFGISYGMVGALQFEVLMAIVGTHKFSSAIGLVLLMEAVAVLVGPPSGGKLLDATHVYMYVFILAGAEVLTSSLILLLGNFFCIRKKPKEPQPEVAAAEEEKLHKPPADSGVDLREVEHFLKAEPEKNGEVVHTPETSV",Km,[3],2.8 mM
"Monocarboxylate transporter 3 (Gallus gallus), Q90632 (protein) MGRADPEEGQLPAPVKPPDGGWGWIVLFGCFVITGFSYAFPKAVSVYFKELMKDFHVGYSDTAWISSIMLAMLYGTGPVCSIMVNQFGCRPVMLIGGLLASSGMILASFTTNIIELYLTAGVLTGLGMALNFQPSLIMLGTYFDKRRPLANGLAAAGSPVFLSSLSPLGQVLLEKFGWRGGFLIMGGLLLNCCTCGAVMRPLDAGMKRKTEKAQDKYEAKEMLPMGGKSEEGISTTDGTKKTKKAKKKPKKGKKLLDFSIFSNRGFIIYTISKFILVLGLFVPPILLVNYAKDTGVPDTEAAFLLSIIGFIDIFARPACGMVAGLKWVRPHVAYLFSFAMLFNGLTDICSARASNYTGLVIFCVFFGISYGMVGALQFEVLMAIVGSQKFSSAIGLVLLIEAFAVLIGPPSAGRLVDALKNYEVIFYLAGSEVVLSALFLAMATYCCLNRGKKTPPPEKNPSAGGGSDTEEAESDVQEAEEHSSDNHQPAHGTDKATVAANEEANHVEDEQSGEGGRCPEADGEVSSRAGCNADQTVERDSF",Km,[4],6 mM
"Monocarboxylate transporter 1 (Rattus norvegicus), P53987 (protein) MPPAIGGPVGYTPPDGGWGWAVVVGAFISIGFSYAFPKSITVFFKEIEIIFSATTSEVSWISSIMLAVMYAGGPISSILVNKYGSRPVMIAGGCLSGCGLIAASFCNTVQELYFCIGVIGGLGLAFNLNPALTMIGKYFYKKRPLANGLAMAGSPVFLSTLAPLNQAFFGIFGWRGSFLILGGLLLNCCVAGSLMRPIGPQQGKVEKLKSKESLQEAGKSDANTDLIGGSPKGEKLSVFQTVNKFLDLSLFTHRGFLLYLSGNVVMFFGLFTPLVFLSNYGKSKHFSSEKSAFLLSILAFVDMVARPSMGLAANTRWIRPRVQYFFAASVVANGVCHLLAPLSTTYVGFCIYAGVFGFAFGWLSSVLFETLMDLVGPQRFSSAVGLVTIVECCPVLLGPPLLGRLNDMYGDYKYTYWACGVILIIAGLYLFIGMGINYRLVAKEQKAEEKKRDGKEDETSTDVDEKPKKTMKETQSPAPLQNSSGDPAEEESPV",Km,[5],0.2 mM
same,Km,[6],> 60 mM
same,Km,[7],3.5 mM
"Monocarboxylate transporter 4 (Rattus norvegicus), O35910 (protein) MGGAVVDEGPTGIKAPDGGWGWAVLFGCFIITGFSYAFPKAVSVFFKELMHEFGIGYSDTAWISSILLAMLYGTGPLCSMCVNRFGCRPVMLVGGLFASLGMVAASFCRSIIQIYLTTGVITGLGLALNFQPSLIMLNRYFNKRRPMANGLAAAGSPVFLCALSPLGQLLQDHYGWRGGFLILGGLLLNCCVCAALMRPLVAPQASGGAEPHGPQRPSPRLLDLSVFRDRGFLIYAVAASIMVLGLFVPPVFVVSYAKDMGVPDTKAAFLLTILGFIDIFARPTAGFITGLKKVRPYSVYLFSFAMFFNGFTDLTGSTASDYGGLVVFCIFFGISYGMVGALQFEVLMAIVGTQKFSSAIGLVLLLEAVAVLIGPPSGGKLLDATKVYKYVFILAGAEVLTSSLVLLLGNFFCIGKRKRPEVTKPEEVASEEEKLHKPPVDVRVDSREVEHFLKAEPEKNGEVVHTPETSV",Km,[8],57 mM
same,Km,[9],22 mM
